In patent US20250073302A1 (PURDUE RESEARCH FOUNDATION, published 2025):
Non-standard residues stand in square brackets, D forms with d. dBpa = N[C@H](Cc1ccc(C(=O)c2ccccc2)cc1)C(=O)O; dPhe(3,4-F2) = N[C@H](Cc1ccc(F)c(F)c1)C(=O)O; Phe(3-F) = N[C@@H](Cc1cccc(F)c1)C(=O)O; Phe(4-F) = N[C@@H](Cc1ccc(F)cc1)C(=O)O; dPhe(3-F) = N[C@H](Cc1cccc(F)c1)C(=O)O; dPhe(4-F) = N[C@H](Cc1ccc(F)cc1)C(=O)O; Dap = NC[C@H](N)C(=O)O

biological target: 20S core particle (CP) proteasome; assay: cell-based or functional assay

| TAS-1 (percent stimulation of 20S CP) | Binder |
| --- | --- |
| 370 % of DMSO | cyclo(T[dL]F[dF][Dap][dR]) (also: AA5 described as D-Dap in one passage, DAP in another) [CyPPS24] |
| 289 % of DMSO | cyclo(T[dV]F[dF]A[dR]) (SMILES CC(C)[C@H]1NC(=O)[C@H]([C@@H](C)O)NC(=O)[C@@H](CCCNC(=N)N)NC(=O)[C@H](C)NC(=O)[C@@H](Cc2ccccc2)NC(=O)[C@H](Cc2ccccc2)NC1=O) [CyPPS28] |
| 124 % of DMSO | cyclo(T[dI]F[dF]R[dA]) (SMILES CC[C@@H](C)[C@H]1NC(=O)[C@H]([C@@H](C)O)NC(=O)[C@@H](C)NC(=O)[C@H](CCCNC(=N)N)NC(=O)[C@@H](Cc2ccccc2)NC(=O)[C@H](Cc2ccccc2)NC1=O) [CyPPS12] |
| 178 % of DMSO | cyclo(T[dA]F[dF]R[dA]) (SMILES C[C@H]1NC(=O)[C@H](CCCNC(=N)N)NC(=O)[C@@H](Cc2ccccc2)NC(=O)[C@H](Cc2ccccc2)NC(=O)[C@@H](C)NC(=O)[C@H]([C@@H](C)O)NC1=O) [CyPPS3] |
| 298 % of DMSO | cyclo(T[dL]F[dF]R[dS]) (SMILES CC(C)C[C@H]1NC(=O)[C@H]([C@@H](C)O)NC(=O)[C@@H](CO)NC(=O)[C@H](CCCNC(=N)N)NC(=O)[C@@H](Cc2ccccc2)NC(=O)[C@H](Cc2ccccc2)NC1=O) [CyPPS22] |
| 109 % of DMSO | cyclo(TVF[dF]A[dR]) (SMILES CC(C)[C@@H]1NC(=O)[C@H]([C@@H](C)O)NC(=O)[C@@H](CCCNC(=N)N)NC(=O)[C@H](C)NC(=O)[C@@H](Cc2ccccc2)NC(=O)[C@H](Cc2ccccc2)NC1=O) [CyPPS27] |
| 280 % of DMSO | cyclo(T[dL][Phe(4-F)][dF]R[dA]) (SMILES CC(C)C[C@H]1NC(=O)[C@H]([C@@H](C)O)NC(=O)[C@@H](C)NC(=O)[C@H](CCCNC(=N)N)NC(=O)[C@@H](Cc2ccccc2)NC(=O)[C@H](Cc2ccc(F)cc2)NC1=O) [CyPPS15] |
| 203 % of DMSO | cyclo(T[dL]F[dY]R[dA]) (SMILES CC(C)C[C@H]1NC(=O)[C@H]([C@@H](C)O)NC(=O)[C@@H](C)NC(=O)[C@H](CCCNC(=N)N)NC(=O)[C@@H](Cc2ccc(O)cc2)NC(=O)[C@H](Cc2ccccc2)NC1=O) [CyPPS17] |
| 212 % of DMSO | cyclo(T[dL]R[dF]R[dA]) (SMILES CC(C)C[C@H]1NC(=O)[C@H]([C@@H](C)O)NC(=O)[C@@H](C)NC(=O)[C@H](CCCNC(=N)N)NC(=O)[C@@H](Cc2ccccc2)NC(=O)[C@H](CCCNC(=N)N)NC1=O) [CyPPS30] |
| 283 % of DMSO | cyclo(T[dL]F[dPhe(3,4-F2)]R[dA]) (SMILES CC(C)C[C@H]1NC(=O)[C@H]([C@@H](C)O)NC(=O)[C@@H](C)NC(=O)[C@H](CCCNC(=N)N)NC(=O)[C@@H](Cc2ccc(F)c(F)c2)NC(=O)[C@H](Cc2ccccc2)NC1=O) [CyPPS20] |
| 152 % of DMSO | cyclo(T[dL]L[dF]R[dA]) (SMILES CC(C)C[C@@H]1NC(=O)[C@@H](CC(C)C)NC(=O)[C@H]([C@@H](C)O)NC(=O)[C@@H](C)NC(=O)[C@H](CCCNC(=N)N)NC(=O)[C@@H](Cc2ccccc2)NC1=O) [CyPPS29] |

The remaining lines, values behind:

| Binder | TAS-1 (percent stimulation of 20S CP) |
| --- | --- |
| cyclo(T[dD]F[dF]R[dA]) (SMILES C[C@H]1NC(=O)[C@H](CCCNC(=N)N)NC(=O)[C@@H](Cc2ccccc2)NC(=O)[C@H](Cc2ccccc2)NC(=O)[C@@H](CC(=O)O)NC(=O)[C@H]([C@@H](C)O)NC1=O) [CyPPS10] | 173 % of DMSO |
| cyclo([dL]F[dF]K[dA]) (SMILES CC(C)C[C@H]1NC(=O)[C@@H](C)NC(=O)[C@H](CCCCN)NC(=O)[C@@H](Cc2ccccc2)NC(=O)[C@H](Cc2ccccc2)NC1=O) [CyPPS25] | 297 % of DMSO |
| cyclo(T[dL]F[dPhe(3-F)]R[dA]) (SMILES CC(C)C[C@H]1NC(=O)[C@H]([C@@H](C)O)NC(=O)[C@@H](C)NC(=O)[C@H](CCCNC(=N)N)NC(=O)[C@@H](Cc2cccc(F)c2)NC(=O)[C@H](Cc2ccccc2)NC1=O) [CyPPS19] | 287 % of DMSO |
| cyclo(A[dL]F[dF]R[dA]) (SMILES CC(C)C[C@H]1NC(=O)[C@H](C)NC(=O)[C@@H](C)NC(=O)[C@H](CCCNC(=N)N)NC(=O)[C@@H](Cc2ccccc2)NC(=O)[C@H](Cc2ccccc2)NC1=O) [CyPPS2] | 241 % of DMSO |
| cyclo(T[dL]Y[dF]R[dA]) (SMILES CC(C)C[C@H]1NC(=O)[C@H]([C@@H](C)O)NC(=O)[C@@H](C)NC(=O)[C@H](CCCNC(=N)N)NC(=O)[C@@H](Cc2ccccc2)NC(=O)[C@H](Cc2ccc(O)cc2)NC1=O) [CyPPS16] | 198 % of DMSO |
| cyclo(T[dK]F[dF]R[dA]) (SMILES C[C@H]1NC(=O)[C@H](CCCNC(=N)N)NC(=O)[C@@H](Cc2ccccc2)NC(=O)[C@H](Cc2ccccc2)NC(=O)[C@@H](CCCCN)NC(=O)[C@H]([C@@H](C)O)NC1=O) [CyPPS11] | 101 % of DMSO |
| cyclo(T[dL]F[dBpa]R[dA]) (SMILES CC(C)C[C@H]1NC(=O)[C@H]([C@@H](C)O)NC(=O)[C@@H](C)NC(=O)[C@H](CCCNC(=N)N)NC(=O)[C@@H](Cc2ccc(C(=O)c3ccccc3)cc2)NC(=O)[C@H](Cc2ccccc2)NC1=O) [CyPPS21] | 278 % of DMSO |
| cyclo(T[dL]F[dPhe(4-F)]R[dA]) (SMILES CC(C)C[C@H]1NC(=O)[C@H]([C@@H](C)O)NC(=O)[C@@H](C)NC(=O)[C@H](CCCNC(=N)N)NC(=O)[C@@H](Cc2ccc(F)cc2)NC(=O)[C@H](Cc2ccccc2)NC1=O) [CyPPS18] | 246 % of DMSO |
| cyclo(T[dL][Phe(3-F)][dF]R[dA]) (SMILES CC(C)C[C@H]1NC(=O)[C@H]([C@@H](C)O)NC(=O)[C@@H](C)NC(=O)[C@H](CCCNC(=N)N)NC(=O)[C@@H](Cc2ccccc2)NC(=O)[C@H](Cc2cccc(F)c2)NC1=O) [CyPPS31] | 199 % of DMSO |
